The target of the assay is WDR5Δ23 (WD repeat domain 5, residues 24–334) (human) (UniProt P61964). Nature of the assay: fluorescence polarisation. (Polarisation of emitted light reports the rotation of a fluorescent probe.)
For the substance “Ac-2mer (Ac-3mer without Ala3) (peptide)”, the IC50 (in general, the midpoint of a concentration-inhibition curve) came to 125 µM; the Ki (commonly the dissociation constant of the complex between target and ligand, obtained from inhibition or displacement) amounted to 27 µM.
Consider Ac-3mer (Ac-ARA-NH2) (peptide), for which the IC50 turned out to be 0.54 µM and the Ki was determined as 0.12 µM.
With Ac-H3-3mer (Ac-ART-NH2) (peptide), the IC50 is 0.08 µM and the Ki was 0.02 µM.
In turn, CHO-3mer (CHO-ARA-NH2) (peptide) yielded an IC50 of 14.9 µM and a Ki of 3.2 µM.
Regarding H2N-3mer (H2N-ARA-NH2) (peptide), the IC50 was above 300 µM and the Ki is above 50 µM.
Take H3-3mer (H2N-ART-NH2) (peptide): the concentration for half-maximal inhibition (IC50) is 127 µM and the Ki was found to be 27.3 µM.
Δ1 (Ac-AR-(N-Me)A-NH2) (peptide) registered an IC50 above 300 µM and a Ki above 50 µM.
For Δ2a (Ac-ARA-CONHMe) (peptide), the IC50 is 0.7 µM and the Ki is 0.15 µM.
Δ2b (Ac-ARA-CONMe2) (peptide): the IC50 was 30 µM and the Ki is 6.5 µM.
The substance Δ2c (Ac-ARA-COOCH3) (peptide) had an IC50 of 7.3 µM and a Ki of 1.6 µM.

The values above are taken from publication PMC4289617.
